“Also recorded” adds a separate entry of the source. Non-standard residues stand in square brackets, D forms with d. No end group written: not given here. Cit = NC(=O)NCCC[C@H](N)C(=O)O
Key:
[1] = target: T1, ABCA1 (Mus musculus, UniProt P41233); assay: ABCA1-dependent [3H]cholesterol efflux from J774 macrophages with and without cAMP; format: cell-based
T1 construct: treated (18 h) with a cAMP analog to induce ABCA1 protein expression; endogenous in cells; host or cells: J774 macrophages
Excerpt: Suitable cholesterol efflux assays are described in, e.g., Bielicki, J. K and Oda, M. N., Biochemistry, 41:2089-2096 (2002); Jia et al., Biochem. Biophys. Res. Common., 297:206-213 (2002). In some embodiments, a polypeptide known to mediate cholesterol efflux (e.g., helix 9/10 of Apo A-I) is used to screen for additional mediators of cholesterol efflux in a cell based assay. For example, cell lines in which cholesterol efflux can be enhanced using a cAMP analog that up-regulates ABCA1 protein expression (e.g., J774 macrophages) can conveniently be used to assess the ability of a polypeptide of the present invention to mediate cholesterol efflux. The cells are incubated with labeled cholesterol (e.g., [^3H]cholesterol) under conditions appropriate for cholesterol uptake by the cells. Thus, cAMP or cAMP analogs (e.g., CPT-cAMP) are incubated with the cells for a suitable time before the initiation of cellular cholesterol efflux, i.e., prior to contacting the cells with a test polypeptide. Measurement of labeled cholesterol appearing in the medium is used to determine the cholesterol efflux mediating activity of the test polypeptide.
Aliphatic analogs of ATI-5261 lacking phenylalanine residues retained potent ABCA1 selective cholesterol efflux activity (FIG. 7). J774 macrophages were labeled (48 h) with [^3H]cholesterol and treated (18 h) with a cAMP analog to induce ABCA1 protein expression; cells incubated in the absence of cAMP (left bars) served as controls. […] Peptides were used at a concentration of 30 μg/ml, which was maximal for promoting cholesterol efflux activity. Panel B—Dependence of cholesterol efflux on the concentration of peptides. […] Results are expressed as the difference in cholesterol efflux (%/4 h) observed using cAMP treated vs. non-treated J774 cells. Values are means±SD, n=3.

[2] = target: T2, ABCG1 (Homo sapiens, UniProt P45844); assay: ABCG1 mediated cholesterol efflux from BHK cells stably transfected with ABCG1; format: cell-based; conditions: BHK cells ABCG1 vs. mock transfected, 50 μg peptide/ml serum-free medium
T2 construct: expressed in transfected cells; host or cells: BHK cells, stably transfected
Protocol: To further evaluate potential anti-atherogenic mechanisms of CS6253, BHK cells stably transfected with ABCG1 and mock-transfected control cells were labeled with [3H]cholesterol and used in efflux experiments. The citrulline form of LeuATI-5261 (CS6253) lipidated with POPC and ATI-5261 were used as cholesterol efflux acceptors at 50 μg peptide/ml serum-free medium. Panel A—Time-course for ABCG1 mediated cholesterol efflux from cells to lipid-free CS6253 peptide or CS6253:POPC complexes. […] Panel B—Comparison between CS6253 and ATI-5261 in mediating cellular cholesterol efflux via ABCG1. [3H]cholesterol labeled BHK cells (ABCG1 vs. mock transfected) were incubated with either lipid-free peptide or peptides formulated with POPC.

[3] = test system: human plasma; assay: Cholesterol efflux activity of human plasma treated with lipid-free peptide (J774 cells); format: cell-based; conditions: human plasma with 300 μg/ml peptide 5 minutes (4° C.), diluted to 1%, cAMP treated J774 cells, vs vehicle-treated plasma
Protocol: To test whether CS6253 exerts anti-atherogenic effects in a biological milieu, human plasma was exposed (5 min) to lipid-free peptide. Interactions of CS6253 with HDL and activity of plasma to stimulate cholesterol efflux was assessed, using J774 macrophages labeled with [^3H]cholesterol. Panel A—Cholesterol efflux activity of plasma treated with lipid-free peptides. Human plasma was incubated with 300 μg/ml peptides for 5 minutes (4° C.), diluted to 1% in serum-free RPMI-1640 culture medium and immediately added to [^3H]cholesterol-labeled J774 cells. […] Panel B—Induction of preβ HDL upon treatment of human plasma with CS6253. Plasma was exposed to a small amount of peptide relative to endogenous apoA-I (1:10 mole ratio, respectively) and formation of preβ HDL assessed by 2D non-denaturing gradient gel electrophoresis (NDGGE) and western blot analysis. […] This is consistent with no peptide being associated with the preβ HDL fraction, indicating the particles were authentic preβ particles composed on endogenous apoA-I.

[4] = target: T1, ABCA1; assay: ABCA1-dependent [3H]cholesterol efflux from J774 macrophages with and without cAMP; format: cell-based; design: ABCA1-dependent cholesterol efflux: dose or concentration left out as unconfirmed
[5] = test system: apoE−/− mice; assay: Atherosclerosis in apoE−/− mice on high-fat western diet, whole aorta Oil-Red O staining; format: in vivo, mouse
Protocol: Male apoE^−/− mice at 8 weeks of age were fed a high-fat western diet for 14 weeks. Mice were subsequently randomized to either a control group to receive IP injection of vehicle alone or lipid-free peptide (30 mg/kg) at 48 hour intervals for 6 weeks. […] The extent of whole aorta covered with fatty lesions is shown, determined by Oil-Red O staining. Values are means±SD, n=10 mice per group.
CS6253, another synthesis batch of T5237-4, was administered IP at 10 mg/kg for 10 weeks showing again reduction of substantial atherosclerosis in apoE^−/− mice (FIG. 36). Male apoE^−/− mice at 8 weeks of age were fed a high-fat western diet for 14 weeks. Mice were subsequently randomized to either a control group to receive IP injection of vehicle alone or lipid-free CS6253 (10 mg/kg) at 48 hour intervals for 10 weeks while the mice remained on high-fat western diet. The extent of whole aorta covered with fatty lesions is shown, determined by Oil-Red O staining. Values are means±SD, n=10 mice per group.
CS6253 administered SC also reduce substantial atherosclerosis in apoE KO mice. Male apoE−/− mice at 8 weeks of age were fed a high-fat western diet for 14 weeks (FIG. 37). One group was terminated before treatment start as baseline control. Mice were subsequently randomized to one of 3 arms to receive subcutaneous (SC) injection alternate days for 6 weeks; vehicle alone, CS6253 30 mg/kg or CS6253 60 mg/kg. During the first 4 treatment weeks the mice remained on high-fat western diet while during the last two weeks of treatment they were switched to chow diet. The extent of whole aorta covered with fatty lesions is shown, determined by Oil-Red O staining. Values are means±SD, n=10 mice per group.

[6] = cAMP treated J774 cells, increasing concentration of peptides, 4 h

T1 sequence (P41233 whole entry): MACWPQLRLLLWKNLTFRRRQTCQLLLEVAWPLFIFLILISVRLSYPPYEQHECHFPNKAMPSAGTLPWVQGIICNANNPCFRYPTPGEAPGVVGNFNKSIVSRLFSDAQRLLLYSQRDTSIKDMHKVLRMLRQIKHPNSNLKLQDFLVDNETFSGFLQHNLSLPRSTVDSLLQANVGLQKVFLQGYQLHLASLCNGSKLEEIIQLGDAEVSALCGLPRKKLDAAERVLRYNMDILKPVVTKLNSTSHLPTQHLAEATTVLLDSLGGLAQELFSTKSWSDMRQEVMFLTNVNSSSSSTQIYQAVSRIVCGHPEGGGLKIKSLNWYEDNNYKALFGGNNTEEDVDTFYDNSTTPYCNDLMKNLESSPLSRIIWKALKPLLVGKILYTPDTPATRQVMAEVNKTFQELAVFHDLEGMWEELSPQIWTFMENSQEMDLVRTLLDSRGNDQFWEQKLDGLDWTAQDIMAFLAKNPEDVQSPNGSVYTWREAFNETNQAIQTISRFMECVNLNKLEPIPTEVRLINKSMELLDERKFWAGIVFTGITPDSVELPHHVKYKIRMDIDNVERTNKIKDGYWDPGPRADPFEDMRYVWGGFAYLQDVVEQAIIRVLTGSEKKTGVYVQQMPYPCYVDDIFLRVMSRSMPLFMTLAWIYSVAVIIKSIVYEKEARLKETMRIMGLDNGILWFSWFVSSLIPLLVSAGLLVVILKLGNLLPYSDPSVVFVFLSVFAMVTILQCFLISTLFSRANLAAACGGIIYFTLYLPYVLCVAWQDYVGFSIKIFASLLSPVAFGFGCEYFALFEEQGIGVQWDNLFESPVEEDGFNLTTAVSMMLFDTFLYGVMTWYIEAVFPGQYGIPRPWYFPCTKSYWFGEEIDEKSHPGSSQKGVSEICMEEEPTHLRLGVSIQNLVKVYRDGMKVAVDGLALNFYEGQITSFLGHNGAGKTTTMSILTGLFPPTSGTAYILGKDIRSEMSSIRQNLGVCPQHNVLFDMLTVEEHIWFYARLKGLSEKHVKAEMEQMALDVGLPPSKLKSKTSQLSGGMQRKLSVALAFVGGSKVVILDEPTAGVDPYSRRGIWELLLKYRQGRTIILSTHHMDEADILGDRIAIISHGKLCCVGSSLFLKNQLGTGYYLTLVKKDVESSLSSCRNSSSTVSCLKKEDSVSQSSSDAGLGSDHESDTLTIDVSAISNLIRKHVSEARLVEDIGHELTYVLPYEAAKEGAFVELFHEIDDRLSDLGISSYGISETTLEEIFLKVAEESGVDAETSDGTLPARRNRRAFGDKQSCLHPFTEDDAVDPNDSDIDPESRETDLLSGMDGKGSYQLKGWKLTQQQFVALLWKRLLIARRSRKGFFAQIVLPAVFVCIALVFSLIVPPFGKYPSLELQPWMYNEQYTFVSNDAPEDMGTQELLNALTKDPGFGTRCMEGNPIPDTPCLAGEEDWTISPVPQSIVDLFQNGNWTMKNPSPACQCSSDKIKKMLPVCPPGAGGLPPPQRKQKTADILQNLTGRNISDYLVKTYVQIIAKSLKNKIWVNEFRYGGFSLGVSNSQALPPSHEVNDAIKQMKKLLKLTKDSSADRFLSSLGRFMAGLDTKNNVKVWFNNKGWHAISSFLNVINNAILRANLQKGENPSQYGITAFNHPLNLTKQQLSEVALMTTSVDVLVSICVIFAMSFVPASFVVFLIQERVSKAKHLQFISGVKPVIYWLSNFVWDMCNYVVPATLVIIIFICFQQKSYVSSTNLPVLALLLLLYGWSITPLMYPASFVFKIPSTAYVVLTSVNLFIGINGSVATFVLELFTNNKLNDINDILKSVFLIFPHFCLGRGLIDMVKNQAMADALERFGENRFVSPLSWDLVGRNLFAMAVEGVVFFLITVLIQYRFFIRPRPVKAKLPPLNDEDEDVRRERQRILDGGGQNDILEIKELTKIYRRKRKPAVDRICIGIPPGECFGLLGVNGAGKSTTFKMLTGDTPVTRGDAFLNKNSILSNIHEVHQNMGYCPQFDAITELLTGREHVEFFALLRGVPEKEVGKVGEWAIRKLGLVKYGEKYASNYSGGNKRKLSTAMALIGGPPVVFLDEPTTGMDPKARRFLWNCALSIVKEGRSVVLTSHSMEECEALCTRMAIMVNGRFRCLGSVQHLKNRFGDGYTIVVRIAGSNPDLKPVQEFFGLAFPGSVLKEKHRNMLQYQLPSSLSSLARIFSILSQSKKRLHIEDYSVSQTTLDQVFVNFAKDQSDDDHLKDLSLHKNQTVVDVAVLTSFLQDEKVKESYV

## ATI-5261: HDL mimetic peptide, parent peptide; triglyceride elevating and muscle toxic peptide used as positive control (EVRSKLEEWFAAFREFAEEFLARLKS) [reference compound]
[1]; [6]
  peptide concentration at saturation in cholesterol efflux: roughly 3 μg/ml
[2]
  ABCG1 mediated cholesterol efflux: poorly active
[3]
  capacity of peptide-treated plasma to stimulate cholesterol efflux via ABCA1: greater capacity to stimulate cholesterol efflux
[4]; J774 macrophages with/without cAMP, peptide 10 μg/ml
  ABCA1-dependent cholesterol efflux activity: overall greater efflux response

## EVCitSKLEEWLAALCitELAEELLARLKS (SEQ ID NO:2) (EV[Cit]SKLEEWLAAL[Cit]ELAEELLARLKS) [CS6253, citrulline form of LeuATI-5261, R3,14→Citrulline, 26-mer]
[1]; J774 cells with and without cAMP
  cholesterol efflux activity compared with parent ATI-5261: identical to that observed using the parent ATI-5261 peptide
[1]; cAMP treated J774, lipid-free peptide, 4 h, Michaelis Menten equation
  Km (cholesterol efflux potency) on molar basis: near apolipoproteins molar potency
[1]; [6]
  Km for cholesterol efflux: high potency; also recorded: low Km
  peptide concentration at saturation in cholesterol efflux: 3 µg/mL
[2]
  ABCG1 mediated cholesterol efflux: relatively poor activity
[3]
  capacity of peptide-treated plasma to stimulate cholesterol efflux via ABCA1: greater capacity to stimulate cholesterol efflux
[5]; IP 10 mg/kg at 48 hour intervals for 10 weeks
  extent of whole aorta covered with fatty lesions: reduced atherosclerosis
[5]; IP 30 mg/kg at 48 hour intervals for 6 weeks
  extent of whole aorta covered with fatty lesions: reduced atherosclerosis
[5]; SC 30 mg/kg or 60 mg/kg alternate days for 6 weeks
  extent of whole aorta covered with fatty lesions: reduced atherosclerosis
[4]; J774 with/without cAMP, acceptors lipid-free, 4 h
  ABCA1-dependent cholesterol efflux: stimulated ABCA1-dependent cholesterol efflux similar to native apolipoproteins

From patent US9416162B2, “Peptides having reduced toxicity that stimulate cholesterol efflux” (The Regents of the University of California, priority 2013, dated 2016)
